In paper PMC12081870 (Communications Biology, 2025):

Tested on: Las17 PPR-N fragment (residues 300-422)
Assay: Biolayer Interferometry (BLI), Sla1 SH3 domains to Las17 PPR-N
Assay type: binding, Saccharomyces cerevisiae
Conditions: for fold increase in affinity over single SH3 domain: BLI, tandem vs single SH3 domain
Text: To investigate binding characteristics of the SH3 domains further, Sla1 SH3 protein domains were purified. Three Sla1 SH3 single domains, tandem domains Sla1 SH3#1&2, Sla1 SH3#1&2 W108A (in which the W108A mutation prevents proline motif binding by SH3#2 but not SH3#1) and a fragment with all three SH3 domains were expressed recombinantly and purified. […] This outcome is in line with original research of Rodal and colleagues and with more recent studies of avidity developed by Williamson, which highlighted the importance of tandem binding SH3 domains[13],[27].
Biolayer Interferometry (BLI) assays were performed using an OctetⓇ R2 (Sartorius). Protein samples were placed into the wells of a polystyrene plate (ProxiPlateTM, Perkin Elmer) and binding measured either with Octet NTA Biosensors or Octet GST Biosensors. Screening assays were performed to determine the optimum loading concentration and time for each binding pair to ensure that the probe was not saturated. All experiments were repeated three times, each time with newly prepared protein. Analysis and visualisation were performed using GraphPad Prism 10.0.2.

B1: Sla1 SH3#1-2: SH3#1-2 (aa 5-131), tandem domains; sequence in b253 (protein)
chain: LGIYRAVYAYEPQTPEELAIQEDDLLYLLQKSDIDDWWTVKKRVIGSDSEEPVGLVPSTYIEEAPVLKKVRAIYDYEQVQNADEELTFHENDVFDVFDDKDADWLLVKSTVSNEFGFIPGNYVEPEN
modifications: 15N-labelled (NMR only); left off: GST, end not stated, cleaved
  fold increase in affinity over single SH3 domain: ~100 fold
Listed as tandem Sla1 SH3 domains
  fold increase in affinity over single SH3 domain: > 100 fold
Biolayer Interferometry, Octet R2, Las17 (aa 300-422), three repeats with newly prepared protein, read-out: binding affinity (Kd)
  Kd: 87 nM
